Two substances from publication PMC12208167 can be followed below.

Test [1] deals with human neonatal Fc receptor (FcRn) (human) (UniProt P55899). Nature of the test: ELISA. (In general: ELISA stands for enzyme-linked immunosorbent assay.)
The target in test [2] is murine neonatal Fc receptor (FcRn) (mouse | not stated) (UniProt Q61559). The test can be described thus: ELISA.
Test [3] concerns the target human neonatal Fc receptor (FcRn) (human) (UniProt P55899). The test can be described thus: SPR. (Surface plasmon resonance follows binding to a sensor surface in real time, without labels.)
The target in test [4] is murine neonatal Fc receptor (FcRn) (mouse | not stated) (UniProt Q61559). The test can be described thus: SPR.

Sequence of UniProt P55899 (P55899 27-297, chain 1 of 2): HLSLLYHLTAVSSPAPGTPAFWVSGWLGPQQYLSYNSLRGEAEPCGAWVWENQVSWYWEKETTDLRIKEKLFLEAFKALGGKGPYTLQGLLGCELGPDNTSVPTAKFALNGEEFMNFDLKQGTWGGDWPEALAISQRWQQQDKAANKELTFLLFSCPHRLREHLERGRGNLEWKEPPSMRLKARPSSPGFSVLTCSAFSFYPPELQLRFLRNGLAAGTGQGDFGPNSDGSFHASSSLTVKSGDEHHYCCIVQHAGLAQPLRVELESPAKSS
Sequence of UniProt P55899 (P61769 21-119, chain 2 of 2, further chain): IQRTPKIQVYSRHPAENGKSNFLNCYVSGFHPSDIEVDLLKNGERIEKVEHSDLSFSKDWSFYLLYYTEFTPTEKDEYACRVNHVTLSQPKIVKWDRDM
Sequence of UniProt Q61559 (Q61559 22-365, chain 1 of 2): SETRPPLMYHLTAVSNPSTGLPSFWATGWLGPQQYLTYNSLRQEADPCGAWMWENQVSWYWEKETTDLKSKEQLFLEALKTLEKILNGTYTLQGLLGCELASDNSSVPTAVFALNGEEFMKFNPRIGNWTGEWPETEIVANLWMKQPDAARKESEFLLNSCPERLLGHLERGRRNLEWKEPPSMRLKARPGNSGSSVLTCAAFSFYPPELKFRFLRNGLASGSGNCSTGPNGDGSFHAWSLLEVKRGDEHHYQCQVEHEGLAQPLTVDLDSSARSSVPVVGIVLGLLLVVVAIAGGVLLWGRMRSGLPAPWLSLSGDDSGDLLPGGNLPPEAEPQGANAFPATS
Sequence of UniProt Q61559 (P01887 21-119, chain 2 of 2, further chain): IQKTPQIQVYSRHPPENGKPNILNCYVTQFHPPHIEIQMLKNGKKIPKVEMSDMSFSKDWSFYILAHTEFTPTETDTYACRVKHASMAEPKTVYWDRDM

Broadly, the EC50 is the concentration needed to bring the measured effect to its halfway point. Read a low EC50 as an effect from little substance. As to “B domain-deleted (BDD) FVIII (ReFacto AF) (natural protein)”, the values for the EC50 in test [1] and in test [2] were 1.14 µM and 0.13 µM, respectively.
By Kd is commonly meant the concentration at which binding is half-saturated. As for “m66.6, human anti-MPER HIV monoclonal IgG1 (antibody)”, the dissociation constant Kd in test [3] was 0.0013 to 0.0028 µM; in test [4] it was 0.0002 to 0.0004 µM.
